These results are taken from patent US20080227720A1 (MOREHOUSE SCHOOL OF MEDICINE, published 2008).

The target of this experiment is CXCR4 receptor (human, UniProt P61073 1-352). Briefly: cell-based or functional assay.
CXCR4 receptor, sequence (P61073 whole entry): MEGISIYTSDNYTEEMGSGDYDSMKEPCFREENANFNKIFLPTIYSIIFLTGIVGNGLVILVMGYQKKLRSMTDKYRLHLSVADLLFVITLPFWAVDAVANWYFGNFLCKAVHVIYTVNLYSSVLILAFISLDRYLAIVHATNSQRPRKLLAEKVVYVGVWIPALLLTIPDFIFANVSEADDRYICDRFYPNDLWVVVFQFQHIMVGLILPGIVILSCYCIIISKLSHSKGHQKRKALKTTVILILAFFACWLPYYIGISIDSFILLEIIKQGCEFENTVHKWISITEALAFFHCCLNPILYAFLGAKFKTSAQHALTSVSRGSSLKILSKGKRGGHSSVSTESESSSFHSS

B1: Gp120 9 mer peptide spanning amino acids 315-324 (GRAFYTTKY) (peptide)
peptide: GRAFYTTKY
Turning to B1, the “apoptosis relative to the full gp 120 protein at an equivalent molar ratio” value is ~60 % of the apoptosis observed from the full gp 120 protein.

B2: Nef 10 mer peptide spanning the 50-60 motif (NAACAWLEAQ) (peptide)
peptide: NAACAWLEAQ
For the molecule B2, the “apoptosis relative to the full Nef protein at an equivalent molar ratio” value is ~100 % of the apoptosis observed for the full Nef protein.
